The values that follow come from patent US20160237160A1, “ANTI-TWEAKR ANTIBODIES AND USES THEREOF” (BAYER PHARMA AKTIENGESELLSCHAFT, priority 2013, published 2016).

Marks after values point to notes of the source that are not given here.

Data set [1] relates to HT-29 cells. Description: Caspase 3/7 activation. The class given is cell-based, human. Conditions: 100 μg/ml antibody or 300 ng/ml TWEAK, 24 h, IFN gamma. The protocol:
(§1) To determine the level of apoptosis induction, Caspase-3/7 activation was measured after treatment of cancer cells with TWEAK or agonistic anti-TWEAKR antibodies. Therefore HT-29 cells were plated at a density of 4000 cells/75 μl/well in 96 well plates in assay medium (DMEM/Ham's F12, Biochrom #FG4815+10% FCS+100 ng/ml IFN gamma (R&D Systems #285-IF)). 24 h later cells were incubated with antibodies to the TWEAKR (see Table 24), recombinant human TWEAK (R&D, #1090-TW-025/CF, E. coli derived recombinant soluble human TWEAK, Arg93-His249 of accession # Q4ACW9, Entrez Gene ID 8742, with an N-terminal Met and 6-His tag) or corresponding isotype control IgG at various concentrations as indicated. After 24 h incubation with the antibodies, Caspase 3/7 activity was determined by adding 100 μl/well Caspase 3/7 Solution (Promega, #G8093) to the cells, incubation for one hour and reading of luminescence on a VICTOR V (Perkin Elmer).

Data set [2] concerns 786-O cells. Description: Caspase 3/7 activation. Conditions: 100 μg/ml antibody or 300 ng/ml TWEAK, 48 h, IFN gamma. The class given is cell-based, human. As for the experimental part:
as §1
(§2) To determine whether the strong efficacy of the antibodies of the invention also holds true in other cell lines than HT-29, the capacity to induce Caspase 3/7 by anti-TWEAKR antibodies as compared to recombinant human TWEAK was evaluated in a panel of cell lines. For this analysis the following conditions were used: WiDr cells were plated at 3000 cells/well and incubated for 48 h in the presence of TWEAK or the described antibodies, A253 cells were plated at 2500 cells/well and incubated for 24 h, NCI-H322 cells were plated at 5000 cells/well and incubated for 48 h and 786-O cells were plated at 2500 cells/well and incubated for 48 h. The cells were plated in the media as described in Table 21, for A253, NCI-H322 and 786-O cells 100 ng/ml IFN gamma (R&D Systems #285-IF) was added. 24 h after plating antibodies at 100 μg/ml or TWEAK at 300 ng/ml (100 ng/ml TWEAK for NCI-H322 cells) were added and the cells were further incubated for the time periods indicated above. At the end of the incubation time Caspase 3/7 activity was determined as described for HT-29 cells. The fold induction of Caspase 3/7 was calculated as compared to untreated cells.

The test system of data set [3] is A253 cells. Description: Caspase 3/7 activation. The data set is classed as cell-based, human. To be noted: 100 μg/ml antibody or 300 ng/ml TWEAK, 24 h, IFN gamma. As for the experimental part: as §1, §2
In the next data set the test system is NCI-H322 cells. Description: Caspase 3/7 activation. To be noted: 100 μg/ml antibody or *100 ng/ml TWEAK, 48 h, IFN gamma. The class given is cell-based, human. As for the experimental part:
as §1, §2

For another data set, the system named is WiDr cells. Description: Caspase 3/7 activation. To be noted: 100 μg/ml antibody or 300 ng/ml TWEAK, 48 h. The class given is cell-based, human. The protocol:
as §1, §2

Data set [4] relates to 786-O cells. The data set is described as follows: Inhibition of proliferation (Cell Titer Glo). The data set is classed as cell-based, human. Conditions: 96h, 100 μg/ml antibody or *100 ng/ml TWEAK. The protocol: (§3) Therefore cells were plated in 96well plates in 750 assay medium (growth media from Table 21, plus 100 ng/ml IFN gamma for 786-O cells) at the following cell numbers: WiDr cells 3000 cells/well, 786-O cells 2500 cells/well. 24 h later cells were incubated with anti-TWEAKR antibodies (see Table 26), recombinant human TWEAK or isotype control IgG (not shown) at the indicated concentrations (antibodies from 0.03-300 μg/ml, TWEAK 100 or 300 ng/ml). At the time of antibody addition cell viability was determined in sister plates (time point zero): therefore 750/well CTG solution (Promega Cell Titer Glo solution (catalog # G755B and G756B) was added to the cells, incubated for 10 minutes and luminescence was read on a Victor V (Perkin Elmer). 96 h after incubation with the agents, cell viability was determined in the assay plates by addition of 100 μl/well CTG solution, 10 min incubation and reading of luminescence. Proliferation in control wells was calculated by subtracting time zero values from the luminescence values in the untreated control wells. % of cell proliferation was calculated in the compound treated wells as compared to the untreated control wells.
(§4) To evaluate, whether this strong anti-proliferative activity can also be observed in a broader cell panel, in addition LOVO, NCI-H1975, SW-480 (all 3000 cells/well), HT-29 (4000 cells/well), A253 and SK-OV3 (both 2500 cells/well) cells were incubated with 100 μg/ml anti-TWEAKR antibodies or TWEAK ligand for the time periods as indicated in Table 27. All cells were seeded in the growth media indicated in Table 21 and for all cells except for WiDr cells 100 ng/ml IFNgamma was added to the assay medium when seeding the cells. The percentage of growth inhibition for treated cells as compared to proliferation in untreated control cells was measured and calculated as described above. As shown in Table 27 the antibodies of the current invention are more efficacious as compared to other known antibodies in inhibiting proliferation of various cancer cell lines at 100 μg/ml. In most experiments the antibodies of the current invention also show equal or stronger efficacy as compared to 100-300 ng/ml TWEAK ligand. Thus, the antibodies described in this invention are unique in their activity to induce apoptosis and proliferation inhibition in a broad panel of cancer cell lines.

Data set [5] has as its system A253 cells. Description: Inhibition of proliferation (Cell Titer Glo). The data set is classed as cell-based, human. Conditions: 72h, 100 μg/ml antibody or **300 ng/ml TWEAK. As for the experimental part: as §3, §4
For orientation: Cellular ATP, detected with luciferase, serves as a proxy for viable cell number.

For data set [6], the system named is HT-29 cells. Description: Inhibition of proliferation (Cell Titer Glo). The class given is cell-based, human. Conditions: 24h, 100 μg/ml antibody or **300 ng/ml TWEAK. As for the experimental part:
as §3, §4

Another data set deals with Lovo cells. The data set is described as follows: Inhibition of proliferation (Cell Titer Glo). The class given is cell-based, human. To be noted: 72h, 100 μg/ml antibody or *100 ng/ml TWEAK. The protocol:
as §3, §4

A further data set deals with NCI-H1975 cells. Description: Inhibition of proliferation (Cell Titer Glo). The class given is cell-based, human. To be noted: 72h, 100 μg/ml antibody or *100 ng/ml TWEAK. As for the experimental part: as §3, §4
A further data set has as its system SW480 cells. Description: Inhibition of proliferation (Cell Titer Glo). The class given is cell-based, human. Conditions: 72h, 100 μg/ml antibody or *100 ng/ml TWEAK. The protocol:
as §3, §4

The next data set has as its target TWEAKR (Homo sapiens, UniProt Q9NP84). To be noted: published data; read-out: KD / binding affinity to TWEAKR (published); cited from earlier work.

B1: TWEAK: endogenous TWEAKR ligand; E. coli derived recombinant soluble human TWEAK, Arg93-His249 (R&D #1090-TW-025/CF) (protein, UniProt O43508 93-249, looked up, fragment)
chain: RSAPKGRKTRARRAIAAHYEVHPRPGQDGAQAGVDGTVSGWEEARINSSSPLRYNRQIGEFIVTRAGLYYLYCQVHFDEGKAVYLKLDLLVDGVLALRCLEEFSATAASSLGPQLRLCQVSGLLALRPGSSLRIRTLPWAHLKAAPFLTYFGLFQVH
As to B1, the “Fold induction of Caspase 3/7” value is 2.31 ± 0.29 with HT-29 cells [1]; 1.45 ± 0.05 in the data set on 786-O cells [2]; 1.53 ± 0.13 in the data set with A253 cells [3]; 1.39 ± 0.01 with NCI-H322 cells; 1.22 ± 0.02 in the data set with WiDr cells. Also, the “% Inhibition of proliferation” value with 786-O cells [4] was 12%*; in the data set on A253 cells [5], above 100%**; in the data set with HT-29 cells [6], 98%**; in the data set with Lovo cells it was 53%*; in the data set with NCI-H1975 cells, 56%*; with SW480 cells, 0%*. The Kd with TWEAKR was 0.8 to 2.4 nM.
